Laboratory results as given in article PMC4168779.

Target: Z protein fused to maltose binding protein, MBP-Z(N6C)
Assay: cross-linking

| PEPC efficiency (cross-linking efficiency) [%] | Substance |
| --- | --- |
| 73 | ZSPA affibody (Afb) with BrC6K at site 36, Afb(D36BrC6K) (designed binder) |
| 57 | ZSPA affibody (Afb) with BetY at site 36 (designed binder) |
| 66 | ZSPA affibody (Afb) with IetY at site 36 (designed binder) |
